The data set deals with T1, alpha-fetoprotein (AFP) (UniProt P02771 19-609).
T1 sequence: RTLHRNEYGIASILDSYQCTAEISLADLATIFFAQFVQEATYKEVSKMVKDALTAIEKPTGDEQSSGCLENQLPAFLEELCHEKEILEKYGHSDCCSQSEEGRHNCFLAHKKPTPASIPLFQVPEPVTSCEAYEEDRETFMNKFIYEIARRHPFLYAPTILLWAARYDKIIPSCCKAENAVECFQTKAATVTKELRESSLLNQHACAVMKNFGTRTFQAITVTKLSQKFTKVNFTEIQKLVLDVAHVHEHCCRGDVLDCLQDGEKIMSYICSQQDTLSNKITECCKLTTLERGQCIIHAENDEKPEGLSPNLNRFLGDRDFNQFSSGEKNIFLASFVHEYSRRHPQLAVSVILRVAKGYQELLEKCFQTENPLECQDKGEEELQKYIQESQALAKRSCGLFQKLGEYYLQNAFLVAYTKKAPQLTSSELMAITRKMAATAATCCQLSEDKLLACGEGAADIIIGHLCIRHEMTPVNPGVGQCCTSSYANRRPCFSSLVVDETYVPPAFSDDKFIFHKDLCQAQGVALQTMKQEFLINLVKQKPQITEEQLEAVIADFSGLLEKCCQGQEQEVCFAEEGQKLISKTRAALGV
As to the kind of experiment: electrochemical sandwich assay (DPV, methylene blue read-out); AFP 50 ng/ml captured by anti-AFP; aptamer 10 uM; MB 10 mM; DPV in 0.010 M PBS pH 7.4 (performance section prints 0.0010 M); aptamer 10 uM, 40 min; temperature not given. The note with it: protein: commercial.

For the molecule GTGACGCTCCTAACGCTGACTCAGGTGCAGTTCTCGACTCGGTCTT (ssDNA) [AFP aptamer], the binding result is “binds”.
